Patent US20240228986A1, “ENGINEERED CELLS, ENZYMES, AND METHODS FOR PRODUCING CANNABINOIDS” (priority 2021, published 2024)

Key:
Format in all cases: cell-based, Yarrowia
hexanoic acid = assay: GPS-PKC-MPT fusions, hexanoic acid feed in vivo assay (Example 13)
Protocol: Strain SB-00311 (HCS2, PKS1.1 and PKC1.1) was co-transformed with 1) a construct (pCL-SE-0274) for expression of HMGR and GPS1.1 and 2) a construct (pCL-SE-0406) for expression of a fusion protein that contains, from N- to C-terminus, GPS1.1 and MPT4 linked using the F11 linker sequence or a construct (pCL-SE-0474) for expression of a fusion protein that contains, from N- to C-terminus, GPS1.1, PKC1.1 and MPT4, each linked using the F11 linker sequence.
Transformants were assessed for CBGA production from hexanoic acid. Assay cultures consisted of YNBD+CAA media with 2.5 mM hexanoic acid. After 24 h, an additional 5 mM hexanoic acid was added to each assay culture. Cultures were quenched after 48 h total growth.
Overnight YPD (10 g/L yeast extract, 20 g/L peptone, 2% dextrose) cultures were inoculated from glycerol stocks of the appropriate strain and grown at 30° C. with 250 rpm shaking. Once cultures had reached an OD600 of 4-6, cultures were centrifuged at 500×g for 5 min, supernatants were discarded, and cell pellets were resuspended in equal volume of water. Resuspended cells were centrifuged at 500×g for 5 min, supernatants were discarded, and cells were resuspended in a volume (75 μL×OD×Vculture) of transformation cocktail (45% PEG-400, 0.1 M LiAc, 0.1 M DTT, and 25 ug/100 μL SS Salmon Sperm DNA). For each transformation, >1 μg of plasmid DNA was added to 55 μL cells/transformation cocktail and vortexed for 2 s. Transformations were incubated at 39° C. for 1 h with 250 rpm shaking. Transformations were resuspended in 750 μL YPD with 1 M sorbitol and recovered at 30° C. overnight with 250 rpm shaking. […] Precipitates were pelleted by centrifuging at 4600×g for 10 min and then 200 μL was transferred to fresh plates, sealed, and analyzed via HPLC.
All samples were quenched with equal volume of EtOH containing 0.2 mg/mL internal standard (3,5-Diisopropyl-2-hydroxybenzoic acid CAS #2215-21-6) centrifuged, and clarified solutions were analyzed by HPLC-MS […]

divarinic acid [1] = assay: GPS1.1 fusions of MPT21 mutants, DVA feed (Example 9, Table 12); settings: 2 mM divarinic acid, 2% glucose, quenched after 48 h; strain sCL-SE-0128
Protocol: (§1) Overnight YPD (10 g/L yeast extract, 20 g/L peptone, 2% dextrose) cultures were inoculated from glycerol stocks of the appropriate strain and grown at 30° C. with 250 rpm shaking. Once cultures had reached an OD600 of 4-6, cultures were centrifuged at 500×g for 5 min, supernatants were discarded, and cell pellets were resuspended in equal volume of water. Resuspended cells were centrifuged at 500×g for 5 min, supernatants were discarded, and cells were resuspended in a volume (75 μL×OD×Vculture) of transformation cocktail (45% PEG-400, 0.1 M LiAc, 0.1 M DTT, and 25 ug/100 μL SS Salmon Sperm DNA). For each transformation, >1 μg of plasmid DNA was added to 55 μL cells/transformation cocktail and vortexed for 2 s. Transformations were incubated at 39° C. for 1 h with 250 rpm shaking. Transformations were resuspended in 750 μL YPD with 1 M sorbitol and recovered at 30° C. overnight with 250 rpm shaking. The next day, transformations were centrifuged at 500×g for 5 min, supernatants were discarded, and cell pellets were resuspended in 750 YPD. Resuspended transformations were plated on YPD with appropriate selection or YNBD (6.71 g/L yeast nitrogen base+nitrogen, 0.5% casamino acids, 2% dextrose) agar plates and grown at 30° C. for 2 days. Individual colonies were patched onto YPD plates with appropriate selection or YNBD plates and grown at 30° C. overnight. Patches were used to inoculate 0.5 mL YPD with appropriate selection or YNBD precultures in 96 w blocks and grown at 30° C. for 24-48 h with 1000 rpm shaking. For assays, 0.5 mL YPD with appropriate selection or YNBD cultures containing substrate were inoculated with 2 μL from precultures and grown at 30° C. for 2-4 days with 1000 rpm shaking with 2% glucose added every 24 h. Assay cultures were quenched by addition of 0.5 mL ethanol with 0.2% formic acid and 0.5 mg/mL pentyl-benzoic acid. Precipitates were pelleted by centrifuging at 4600×g for 10 min and then 200 μL was transferred to fresh plates, sealed, and analyzed via HPLC.
(§2) All samples were quenched with equal volume of EtOH containing 0.2 mg/mL internal standard (3,5-Diisopropyl-2-hydroxybenzoic acid CAS #2215-21-6) centrifuged, and clarified solutions were analyzed by HPLC-MS
(§3) • Column: 2.1×50 mm COSMOCORE PBr (Nacalai USA, Inc.) • Mobile Phase: A; 0.1% formic acid in water, B; 0.1% formic acid in acetonitrile • Flow: 0.45 mL/min • Temp: % 50 Celsius • Gradient: 20%B at 0 min, 70%B at 2.3 min, 89% B at 4.2 min, 20% B at 4.3 min, 20%B at 6 min

divarinic acid [2] = assay: MPT fusions with GPS1.1 vs unfused MPTs, DVA feed (Example 9, Table 11); settings: 2 mM divarinic acid
Protocol: As described below, plasmids pCL-SE-0406, pCL-SE-0664, pCL-SE-0663, pCL-SE-0662, pCL-SE-0380 (MPT4), pCL-SE-0337.MPT21, were transformed into strain sCL-SE-0128. Multiple colonies per transformation were precultured for 48 h in YNB containing glucose (2%), casamino acids (0.5%), and MES (100 mM pH 6.5). Pre-culture was used to inoculate assay medium comprised of YNB containing glucose (2%), casamino acids (0.5%), MES (100 mM pH 6.5), and divarinic acid (2 mM). Cultures were quenched after 48 h total growth and assayed for CBGVA and FCBGVA. Averages and standard deviations were calculated from replicates.
as §1, §2, §3

olivetolic acid [3] = assay: MPT fusions with GPS1.1 vs unfused MPTs, OA feed (Example 8, Table 9); settings: 2 mM olivetolic acid, 48 h quench
In short: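 Yeast strain sCL-SE-0128 carrying MPT or GPS1.1–MPT fusion plasmids, precultured 48 h in YNB/2% glucose/0.5% casamino acids/100 mM MES pH 6.5. Assay medium was the same plus 2 mM olivetolic acid, 30 °C. Cultures were ethanol-quenched at 48 h total growth, and CBGA and FCBGA were measured by HPLC-MS with internal standard; values are replicate means ± SD.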

olivetolic acid [4] = assay: GPS1.1 fusions of MPT21 mutants, OA feed (Example 8, Table 10); settings: 3 mM olivetolic acid, 6% glucose, 48 h quench; strain sCL-SE-0128
[5] = 2% glucose, quenched after 48 h, strain sCL-SE-0128

B1: GPS1.1-F11-PKC1.1-F11-MPT4: triple fusion of GPS1.1, PKC1.1 and MPT4 via F11 linkers, SEQ ID NO: 92 (protein)
chain: MSKAKFESVFPRISEELVQLLRDEGLPQDAVQWFSDSLQYNCVGGKLNRGLSVVDTYQLLTGKKELDDEEYYRLALLGWLIELLQAFWLVSDDIMDESKTRRGQPCWYLKPKVGMIAIWDAFMLESGIYILLKKHFRQEKYYIDLVELFHDISFKTELGQLVDLLTAPEDEVDLNRFSLDKHSFIVRYKTAYYSFYLPVVLAMYVAGITNPKDLQQAMDVLIPLGEYFQVQDDYLDNFGDPEFIGKIGTDIQDNKCSWLVNKALQKATPEQRQILEDNYGVKDKSKELVIKKLYDDMKIEQDYLDYEEEVVGDIKKKIEQVDESRGFKKEVLNAFLAKIYKRQKGGAEAAAKEAAAKAGGSGGGSGGGGSGGSGGGGSGGGGSMAVKHLIVLKFKDEITEAQKEEFFKTFVNLVNIIPAMKDVYWGKDVTQKNKEEGYTHIVEVTFESVETIQDYIIHPAHVGFGDVYRSFWEKLLIFDYTPRKGGAEAAAKEAAAKAGGSGGGSGGGGSGGSGGGGSGGGGSMSDNSIATKILNFGHTCWKLQRPYVVKGMISIACGLFGRELFNNRHLFSWGLMWKAFFALVPILSFNFFAAIMNQIYDVDIDRINKPDLPLVSGEMSIETAWILSIIVALTGLIVTIKLKSAPLFVFIYIFGIFAGFAYSVPPIRWKQYPFTNFLITISSHVGLAFTSYSATTSALGLPFVWRPAFSFIIAFMTVMGMTIAFAKDISDIEGDAKYGVSTVATKLGARNMTFVVSGVLLLNYLVSISIGIIWPQVFKSNIMILSHAILAFCLIFQTRELALANYASAPSRQFFEFIWLLYYAEYFVYVFI
modifications: GPS1.1-F11-PKC1.1-F11-MPT4, geranyl diphosphate synthase, polyketide cyclase, membrane-bound prenyltransferase fusion protein
**Q.** How did the CBGA (hexanoic acid; hexanoic acid 2.5 mM plus 5 mM after 24 h, 48 h quench, strain SB-00311 + pCL-SE-0274, average of 44 or 34 transformants) turn out when B1 was run?
**A.** 77.4 ± 32.4 µM

**Q.** And the “production of CBGA compared to the GPS1.1-MPT4 double fusion” value (hexanoic acid; in words, hexanoic acid feed)?
**A.** improved production of CBGA

B2: GPS1.1-F11-MPT21: fusion of GPS1.1 and MPT21 via F11 linker, SEQ ID NO: 25 (protein)
chain: MSKAKFESVFPRISEELVQLLRDEGLPQDAVQWFSDSLQYNCVGGKLNRGLSVVDTYQLLTGKKELDDEEYYRLALLGWLIELLQAFWLVSDDIMDESKTRRGQPCWYLKPKVGMIAIWDAFMLESGIYILLKKHFRQEKYYIDLVELFHDISFKTELGQLVDLLTAPEDEVDLNRFSLDKHSFIVRYKTAYYSFYLPVVLAMYVAGITNPKDLQQAMDVLIPLGEYFQVQDDYLDNFGDPEFIGKIGTDIQDNKCSWLVNKALQKATPEQRQILEDNYGVKDKSKELVIKKLYDDMKIEQDYLDYEEEVVGDIKKKIEQVDESRGFKKEVLNAFLAKIYKRQKGGAEAAAKEAAAKAGGSGGGSGGGGSGGSGGGGSGGGGSMSDNSIATKILNFGHTCWKLQRPYVVKGMISIACGLFGKELLHNTNLISWGLMWKAFFALVPILSFNFFAAIMNQIYDVDIDRINKPDLPLVSGEMSIETAWILSIIVALTGLIVTIKLKSAPLFVFIYIFGIFAGFAYSVPPIRWKQNPSTNFLITISSHVGLAFTSYYASRAALGLPFELRPSFTFLLAFMTVMGMTIAFAKDISDIEGDAKYGVSTVATKLGARNMTFVVSGVLLLNYVAAILAGIIWPQAFNSNVMLLSHAILAFCLIFQTRELALANYASAPSRQFFEFIWLLYYAEYFVYVFI
modifications: GPS1.1-F11-MPT21, geranyl diphosphate synthase, recombinant membrane-bound prenyltransferase fusion protein
**Q.** Which results are given for B2?
**A.** CBGVA (divarinic acid [1]): 58 ± 7 µM; FCBGVA (divarinic acid [1]): 6 ± 1 µM; CBGVA (divarinic acid [2]; [5]): 28 ± 2 µM; FCBGVA (divarinic acid [2]; [5]): 4 ± 0 µM; CBGVA/FCB (divarinic acid [2]; 48 h, product ratio): 7.2; CBGA (olivetolic acid [3]; 2% glucose, strain sCL-SE-0128): 156 ± 13 µM; FCBGA (olivetolic acid [3]; 2% glucose, strain sCL-SE-0128): 52 ± 5 µM; CBGA/FCBGA (olivetolic acid [3]; product ratio): 3.0; CBGA (olivetolic acid [4]): 276 ± 17 µM; FCBGA (olivetolic acid [4]): 89 ± 4 µM
